Test results reported in the supplement of paper PMC7125110.
± gives the standard error. Fewer inactive variants are shown than the library holds.

B1: glmS ribozyme (parent)
chain: AUAAAAGCGCCAGAACUACAGAAAUGUAGUUGACGAGGAGGAGGUUUAUCGAAUUUUCGGCGGAUGCCUCCAAA

Legend:
Conditions in all cases: with glucosamine-6-phosphate
glucosamine-6-phosphate [1] = variants of: B1; test: self-cleavage kobs at 640 uM GlcN6P; higher = faster cleavage; RNA array
In short: (§1)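 E. coli RNA polymerase transcribed barcoded ribozyme variants in situ on sequenced MiSeq chips, which were tracked via a hybridised Cy3 probe at 37 °C. Tiles were imaged over ~14 h after glucosamine-6-phosphate (40 μM to 10 mM) in HEPES/KCl/Mg(OAc)2 buffer was flowed in. Normalised per-tile medians were fit to one- or two-exponential decays for kobs, and kcat and KM came from weighted Michaelis–Menten fits.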

glucosamine-6-phosphate [2] = variants of: B1; test: self-cleavage kobs at 2500 uM GlcN6P; higher = faster cleavage; RNA array
In short: as §1

glucosamine-6-phosphate [3] = variants of: B1; test: self-cleavage kobs at 10000 uM GlcN6P; higher = faster cleavage; RNA array
In short: as §1

Variant	self-cleavage kobs at 640 uM GlcN6P (glucosamine-6-phosphate [1]) [s⁻¹]	self-cleavage kobs at 2500 uM GlcN6P (glucosamine-6-phosphate [2]) [s⁻¹]	self-cleavage kobs at 10000 uM GlcN6P (glucosamine-6-phosphate [3]) [s⁻¹]
C34U U57A	< 1e-05	< 1e-05	
U31G G41U U47G	7.13e-05 ± 2e-05	0.000232 ± 5.7e-05	
G40U C50U G63A C67A	< 1e-05	< 1e-05	
U56G U57A	6.17e-05 ± 1e-05	0.000102 ± 1.2e-05	0.000326 ± 4.4e-05
C10U C58G C67A	0.000107 ± 3.8e-05		
A14G G29U U30G A33C C61G G66U	< 1e-05	< 1e-05	
C8A G32A A36C G41A A42U	< 1e-05	< 1e-05	
G29C U31G A36U	< 1e-05		
A48G A52C U57G	< 1e-05		
A39C G40U G44A U55C U65G	< 1e-05	< 1e-05	
G13C A14G A42G	0.000198 ± 6.9e-05	0.000379 ± 9.2e-05	
A6U C11G C68A C70G	< 1e-05	< 1e-05	
G35A G40U G62U	< 1e-05	< 1e-05	
G32U A36U G62U	< 1e-05		
C10G G13A G43A C50U	< 1e-05	< 1e-05	< 1e-05
G9A A15U C16A G63C C68U	< 1e-05		
G38A A42G G62U	< 1e-05		
G29C G41C C68G	< 1e-05	< 1e-05	< 1e-05
A12G U30A G44A	< 1e-05		
C34G U49A G66A	< 1e-05		
G32A G51U A52U G60C G62C	< 1e-05		
G37C A53C G60A	< 1e-05		
A6C G13A G38A C58U	< 1e-05		
A12U G35C C70U	< 1e-05	< 1e-05	
G29U G37A C50G C68G	0.000384 ± 0.00016	5.37e-05 ± 1.7e-05	
A12U A48C	0.000142 ± 2.1e-05	0.000341 ± 5.1e-05	

Variant	self-cleavage kobs at 640 uM GlcN6P (glucosamine-6-phosphate [1]) [s⁻¹]	self-cleavage kobs at 2500 uM GlcN6P (glucosamine-6-phosphate [2]) [s⁻¹]	self-cleavage kobs at 10000 uM GlcN6P (glucosamine-6-phosphate [3]) [s⁻¹]
U30A C34U G41C G51A	< 1e-05		
A12U C19U U69A	0.000392 ± 0.0001	0.000303 ± 6e-05	
A15G G38U	< 1e-05		
C10A C61G C67G C71G	0.000346 ± 8.8e-05	0.000167 ± 8.1e-05	
A52G U56G	0.000309 ± 5.9e-05	0.000536 ± 0.00011	0.0014 ± 0.00025
C61G C68U U69A	< 1e-05		
A6U A36C G38U U56C C67G C68G	0.000412 ± 0.0001	0.000145 ± 4.4e-05	
A42G G43A U46G G66U	< 1e-05	< 1e-05	
C8G C11G A14C A39G C50G	8.19e-05 ± 2.8e-05		
G37U G38A G41U U49A A52U G59U C67A	< 1e-05		
G44A U46C C68A	< 1e-05	< 1e-05	
G13U C16G G29A A39G	0.000103 ± 3.7e-05	0.000286 ± 7.5e-05	
U45G U46C C61A G66U	< 1e-05	< 1e-05	
C10A G43C A53U	< 1e-05	< 1e-05	
G7A G9U G13U A48C	< 1e-05		
G40U U46C U55G	0.000194 ± 6.6e-05		
A36G G43A G59U	< 1e-05	< 1e-05	
C16A A36U A42G A48G G51U U54G	< 1e-05	< 1e-05	
G35U U47A	< 1e-05	< 1e-05	
G35A G40U C68U	< 1e-05		
C16G U45C U54A C70U	6.18e-05 ± 2.7e-05		
U31G G32U G40A A48C	< 1e-05	< 1e-05	
G7A G38C G59C	< 1e-05		
C8A G32A G66U	< 1e-05		
A6U C8A U31G	< 1e-05	< 1e-05	
C11U U47A A48C C61A C70U C71A	< 1e-05	< 1e-05	

Variant	self-cleavage kobs at 640 uM GlcN6P (glucosamine-6-phosphate [1]) [s⁻¹]	self-cleavage kobs at 2500 uM GlcN6P (glucosamine-6-phosphate [2]) [s⁻¹]	self-cleavage kobs at 10000 uM GlcN6P (glucosamine-6-phosphate [3]) [s⁻¹]
A36U U45A C50U U54C U57A	< 1e-05	< 1e-05	
G29C G37C C68G	7.66e-05 ± 3.4e-05		
C34G U45A U57C	< 1e-05		
A15U A52U G66C C71U	< 1e-05		
U31A A39C C50G C71A	< 1e-05	< 1e-05	< 1e-05
G9C C70G	< 1e-05		< 1e-05
U55G G62A G63U	< 1e-05		< 1e-05
C11U A42U U55G G63U C68U	< 1e-05	< 1e-05	
A48U G59A C67U	< 1e-05	< 1e-05	
C34A G44C C58U	< 1e-05	< 1e-05	
G41A A48C A52U	< 1e-05		
U45A C58A C71U	0.000102 ± 2.9e-05	0.000293 ± 8.3e-05	
G7C A12U G41U	< 1e-05	< 1e-05	
A36G G43U	< 1e-05		< 1e-05
U46A U47C C70A	9.01e-05 ± 2.2e-05	0.000206 ± 3.7e-05	
C16G A36G G40A G63U	< 1e-05	< 1e-05	
C11A G37U A64G	< 1e-05		
C8U A64G C67G	< 1e-05		
G35U G43U G60A	< 1e-05	< 1e-05	
G29U G51A A64U U69G	0.000114 ± 3.7e-05	0.000294 ± 9.7e-05	
A14U G29C A48G U65A	< 1e-05		
A15U A33G G41U	< 1e-05		
C34G G51A C67U	< 1e-05		
A6G A42C C58U	< 1e-05	< 1e-05	
G38A C61U C68U	< 1e-05		
U47A G63A	< 1e-05		

Variant	self-cleavage kobs at 640 uM GlcN6P (glucosamine-6-phosphate [1]) [s⁻¹]	self-cleavage kobs at 2500 uM GlcN6P (glucosamine-6-phosphate [2]) [s⁻¹]	self-cleavage kobs at 10000 uM GlcN6P (glucosamine-6-phosphate [3]) [s⁻¹]
A6U G29A G37A G38A A42C G43U G62U C70U	< 1e-05	< 1e-05	
G41U G43U U45C A53U C71U	< 1e-05	< 1e-05	
C16G U30C C50U	< 1e-05		
A36G G51C C71G	< 1e-05	< 1e-05	
C10U U31C A52U	< 1e-05		
U45A U49C	< 1e-05		< 1e-05
C34G G37A U45A C58A	< 1e-05		
G29A U30A U31C	0.000152 ± 2.2e-05	0.000309 ± 6.5e-05	
G37C U57A A64C C71A	< 1e-05	< 1e-05	
A6U U56C C68G	< 1e-05	< 1e-05	
C10U A36U G41A	< 1e-05	< 1e-05	
A12U A48C C58A	< 1e-05	< 1e-05	
G62A G66C C67A	< 1e-05		
A39C G51C U56C C70A	< 1e-05		
C10U G38U U69A	8.22e-05 ± 2.4e-05		
C34G A39C U46A	< 1e-05		
U55G U65C C70U	0.00017 ± 3.7e-05	0.000458 ± 0.00012	
C10A G63A U69A C71U	0.000215 ± 6.3e-05		
G9C A39U A42C U56G	< 1e-05		
G7U U31G C70A	0.000541 ± 0.00017		
C11A U46G C61G	< 1e-05	< 1e-05	
G29U G41C A42U G63U	< 1e-05		
A36C G37A A64G	< 1e-05		
G40C G66A C70A	9.02e-05 ± 2.4e-05	0.000246 ± 6.6e-05	0.000559 ± 0.0001
C10G G41U U55A C58G G63U	< 1e-05		
G29C G40A G44U A64G	< 1e-05	< 1e-05	

Variant	self-cleavage kobs at 640 uM GlcN6P (glucosamine-6-phosphate [1]) [s⁻¹]	self-cleavage kobs at 2500 uM GlcN6P (glucosamine-6-phosphate [2]) [s⁻¹]	self-cleavage kobs at 10000 uM GlcN6P (glucosamine-6-phosphate [3]) [s⁻¹]
C11G C70G	9.08e-05 ± 1.6e-05	5.33e-05 ± 1.4e-05	2.25e-05 ± 9.6e-06
U31G G37C U45G C70U	< 1e-05	< 1e-05	
G13U A14U G35C U46A G51U U65A	< 1e-05		
G32A U49C C50G	< 1e-05		
A15G U30A C67A C70U	0.000654 ± 0.00016	9.99e-05 ± 4.6e-05	0.00115 ± 0.00026
A39U U46G C50U U54C	< 1e-05		
A6G C50G C71G	0.000369 ± 7.4e-05	9.48e-05 ± 2.2e-05	
G13U A64U C70G	< 1e-05		
C11A C16U U69G	0.000429 ± 0.00014		
G38A G41C U54G C61A	< 1e-05	< 1e-05	
A33U G35C G63U	< 1e-05	< 1e-05	
A39U G41U U47A A52C	< 1e-05	< 1e-05	
C10U U49A U55A	< 1e-05		
G29U U45G U65C	< 1e-05	< 1e-05	
C61G G62A	< 1e-05	< 1e-05	
A14G A42C G63U	< 1e-05		
G43C G44A C68A	< 1e-05	< 1e-05	
U57G C58G C67G	0.000157 ± 5.5e-05	6.13e-05 ± 2.6e-05	3.89e-05 ± 1.9e-05
C8U G37U C71G	0.000584 ± 0.00027		
U57G C67G	0.000478 ± 0.00018		2.33e-05 ± 1e-05
A14U G29C G51U	< 1e-05		
U31C A42G G66A	0.000315 ± 9.6e-05	0.00117 ± 0.00033	
U55G U56A G60U C71U	< 1e-05		
U30C U47G	6.62e-05 ± 2.2e-05	3.09e-05 ± 1.1e-05	2.83e-05 ± 6e-06
G35C A52U C67U C68A	< 1e-05		
U54A U65A C68G	5.85e-05 ± 2.8e-05	0.000194 ± 6.9e-05	
